Measured values reported in US20120178908A1 (Novo Nordisk, published 2012).

T1: TLT-1 receptor on the surface of activated human platelets (human) (UniProt Q86YW5)
T1 sequence: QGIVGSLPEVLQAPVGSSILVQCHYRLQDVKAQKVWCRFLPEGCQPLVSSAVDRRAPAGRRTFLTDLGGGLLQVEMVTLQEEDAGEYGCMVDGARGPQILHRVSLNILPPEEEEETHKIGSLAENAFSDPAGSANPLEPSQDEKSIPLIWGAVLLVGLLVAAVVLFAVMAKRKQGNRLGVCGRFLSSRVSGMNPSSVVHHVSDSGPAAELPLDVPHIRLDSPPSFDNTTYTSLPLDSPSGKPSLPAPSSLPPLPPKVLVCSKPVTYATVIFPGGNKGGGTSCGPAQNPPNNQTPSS

T2: TLT-1 18-188 relipidated in 20:80 PS:PC vesicles (human) (UniProt Q86YW5)
T2 sequence: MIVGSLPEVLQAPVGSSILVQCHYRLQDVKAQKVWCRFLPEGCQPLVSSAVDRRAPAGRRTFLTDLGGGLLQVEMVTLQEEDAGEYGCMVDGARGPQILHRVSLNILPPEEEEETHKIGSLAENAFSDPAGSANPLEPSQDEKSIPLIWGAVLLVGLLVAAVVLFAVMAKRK


How the values were obtained:
[1] = biological target: T1, TLT-1 receptor on the surface of activated human platelets (human)
[2] = biological target: T2, TLT-1 18-188 relipidated in 20:80 PS:PC vesicles (human)

Row | FVII-mediated FXa generation % Activity activated plts (n 4) [1] | FVIIa-mediated FXa generation % Activity activated plts (n 1) [1] | FVII-mediated FXa generation % Activity lipidated TLT-1 [2] | FVIIa-mediated FXa generation % Activity lipidated TLT-1 [2] | FVII-mediated FXa generation % Activity activated plts (n 2) [1] | FVIIa-mediated FXa generation % Activity activated plts (n 2) [1] | Binder
1 | 111% | 125% | 97% | 101% | – | – | Fab 0012-LC-L1-TF;VH-CH1-HPC4 (protein) light chain-linker-TF: DVVMTQTPLSLPVSLGDQASISCRSSQSLVHRNGNTYFHWCLQKPGQSPKLLIYKVSNRFSGVPDRFSGSGSGTDFTLKISRVEAEDLGVYFCSQSTHVPYTFGGGTKLEIKRTVAAPSVFIFPPSDEQLKSGTASVVCLLNNFYPREAKVQWKVDNALQSGNSQESVTEQDSKDSTYSLSSTLTLSKADYEKHKVYACEVTHQGLSSPVTKSFNRGECGSSGTTNTVAAYNLTWKSTNFKTILEWEPKPVNQVYTVQISTKSGDWKSKCFYTTDTECDLTDEIVKDVKQTYLARVFSYPAGNVESTGSAGEPLYENSPEFTPYLETNLGQPTIQSFEQVGTKVNVTVEDERTLVRRNNTFLSLRDVFGKDLIYTLYYWKSSSSGKKTAKTNTNEFLIDVDKGENYCFSVQAVIPSRTVNRKSTDSPVECMGQEKGEFRE VH-CH1-HPC4: EVKLLESGGGLVQPGGSLKLSCAASGFDFSRYWMTWVRQAPGKGLEWIGEINPDSSTINYTPSLKDKFIISRDNAKNTLYLQMSEVRSEDTALYYCASGVFTSWGQGTLVTVSAASTKGPSVFPLAPCSRSTSESTAALGCLVKDYFPEPVTVSWNSGALTSGVHTFPAVLQSSGLYSLSSVVTVPSSSLGTKTYTCNVDHKPSNTKVDKRVESKEDQVDPRLIDGK
2 | 96% | 112% | 96% | 106% | – | – | Fab 0012-LC-L2-TF;VH-CH1-HPC4 (protein) light chain-linker-TF: DVVMTQTPLSLPVSLGDQASISCRSSQSLVHRNGNTYFHWCLQKPGQSPKLLIYKVSNRFSGVPDRFSGSGSGTDFTLKISRVEAEDLGVYFCSQSTHVPYTFGGGTKLEIKRTVAAPSVFIFPPSDEQLKSGTASVVCLLNNFYPREAKVQWKVDNALQSGNSQESVTEQDSKDSTYSLSSTLTLSKADYEKHKVYACEVTHQGLSSPVTKSFNRGECGSGGGGSSGTTNTVAAYNLTWKSTNFKTILEWEPKPVNQVYTVQISTKSGDWKSKCFYTTDTECDLTDEIVKDVKQTYLARVFSYPAGNVESTGSAGEPLYENSPEFTPYLETNLGQPTIQSFEQVGTKVNVTVEDERTLVRRNNTFLSLRDVFGKDLIYTLYYWKSSSSGKKTAKTNTNEFLIDVDKGENYCFSVQAVIPSRTVNRKSTDSPVECMGQEKGEFRE VH-CH1-HPC4: EVKLLESGGGLVQPGGSLKLSCAASGFDFSRYWMTWVRQAPGKGLEWIGEINPDSSTINYTPSLKDKFIISRDNAKNTLYLQMSEVRSEDTALYYCASGVFTSWGQGTLVTVSAASTKGPSVFPLAPCSRSTSESTAALGCLVKDYFPEPVTVSWNSGALTSGVHTFPAVLQSSGLYSLSSVVTVPSSSLGTKTYTCNVDHKPSNTKVDKRVESKEDQVDPRLIDGK
3 | – | – | 87% | 93% | 78% | 81% | Fab 0012-VH-CH1-L10-TF;LC-HPC4 (protein) VH-CH1-linker-TF: EVKLLESGGGLVQPGGSLKLSCAASGFDFSRYWMTWVRQAPGKGLEWIGEINPDSSTINYTPSLKDKFIISRDNAKNTLYLQMSEVRSEDTALYYCASGVFTSWGQGTLVTVSAASTKGPSVFPLAPCSRSTSESTAALGCLVKDYFPEPVTVSWNSGALTSGVHTFPAVLQSSGLYSLSSVVTVPSSSLGTKTYTCNVDHKPSNTKVDKRVESKYGPPSPSSPAPEFLGGSGTTNTVAAYNLTWKSTNFKTILEWEPKPVNQVYTVQISTKSGDWKSKCFYTTDTECDLTDEIVKDVKQTYLARVFSYPAGNVESTGSAGEPLYENSPEFTPYLETNLGQPTIQSFEQVGTKVNVTVEDERTLVRRNNTFLSLRDVFGKDLIYTLYYWKSSSSGKKTAKTNTNEFLIDVDKGENYCFSVQAVIPSRTVNRKSTDSPVECMGQEKGEFRE light chain-HPC4: DVVMTQTPLSLPVSLGDQASISCRSSQSLVHRNGNTYFHWCLQKPGQSPKLLIYKVSNRFSGVPDRFSGSGSGTDFTLKISRVEAEDLGVYFCSQSTHVPYTFGGGTKLEIKRTVAAPSVFIFPPSDEQLKSGTASVVCLLNNFYPREAKVQWKVDNALQSGNSQESVTEQDSKDSTYSLSSTLTLSKADYEKHKVYACEVTHQGLSSPVTKSFNRGECEDQVDPRLIDGK
